In ChEMBL document CHEMBL1150988, “-lactam-recognizing enzymes exhibit different structural specificity in acyclic amide and ester substrates: a starting point in -lactamase evolution?” (Bioorg Med Chem Lett, 1994):

Key:
Conditions in all cases: enterococcus cloacae
[1] = substrate: CC(=O)NCCCC[C@H](NC(C)=O)C(=O)NCC(=O)O[C@H](C)C(=O)O; assay: (§1) Km against P99 beta-lactamase
[2] = substrate: CC(=O)NCCCC[C@H](NC(C)=O)C(=O)NCC(=O)S[C@H](C)C(=O)O; assay: as §1
[3] = substrate: CC(=O)NCCCC[C@H](NC(C)=O)C(=O)N[C@@H](C)C(=O)O[C@H](C)C(=O)O; assay: as §1
[4] = substrate: C[C@@H](OC(=O)CNC(=O)Cc1ccccc1)C(=O)O; assay: as §1
[5] = substrate: C[C@@H](SC(=O)CNC(=O)Cc1ccccc1)C(=O)O; assay: as §1
[6] = substrate: C[C@H](NC(=O)Cc1ccccc1)C(=O)O[C@H](C)C(=O)O; assay: as §1

B1: Beta-lactamase (Enterobacter cloacae), P05364 (protein)
chain: MMRKSLCCALLLGISCSALATPVSEKQLAEVVANTITPLMKAQSVPGMAVAVIYQGKPHYYTFGKADIAANKPVTPQTLFELGSISKTFTGVLGGDAIARGEISLDDAVTRYWPQLTGKQWQGIRMLDLATYTAGGLPLQVPDEVTDNASLLRFYQNWQPQWKPGTTRLYANASIGLFGALAVKPSGMPYEQAMTTRVLKPLKLDHTWINVPKAEEAHYAWGYRDGKAVRVSPGMLDAQAYGVKTNVQDMANWVMANMAPENVADASLKQGIALAQSRYWRIGSMYQGLGWEMLNWPVEANTVVEGSDSKVALAPLPVAEVNPPAPPVKASWVHKTGSTGGFGSYVAFIPEKQIGIVMLANTSYPNPARVEAAYHILEALQ
[1]
  Km: 36.1 mM
[2]
  Km: 6.7 mM
[3]
  Km: 26.9 mM
[4]
  Km: 8.1 mM
[5]
  Km: 3.3 mM
[6]
  Km: 23.4 mM
